Measurements as given in FireProtDB (doi:10.1006/jmbi.2001.4956).

B1: Guanyl-specific ribonuclease Sa3, P30289 (parent)
chain: MRIPPRLVALAGAAAVAATLIAGPVAAAAPASHAVAASSAASASVKAVGRVCYSALPSQAHDTLDLIDEGGPFPYSQDGVVFQNREGLLPAHSTGYYHEYTVITPGSPTRGARRIITGQQWQEDYYTADHYASFRRVDFAC
B2: Guanyl-specific ribonuclease Sa, P05798 (parent)
chain: DVSGTVCLSALPPEATDTLNLIASDGPFPYSQDGVVFQNRESVLPTQSYGYYHEYTVITPGARTRGTRRIITGEATQEDYYTGDHYATFSLIDQTC

Variants of: B1
Conditions: Kitasatospora aureofaciens; pH 7; 25 °C; Thermal; CD; MOPS 30 mM; reversible: yes(>95 %); structure 1MGR; whole UniProt chain shown

In order of rising “ddG of mutation (higher = less stable)” value:
1. Y75F  -0.5 kcal/mol
2. Y131F  0 kcal/mol
3. Y100F  0.7 kcal/mol
4. Y126F  1 kcal/mol
5. Y125F  1.5 kcal/mol
6. Y97F  2.1 kcal/mol

Variants of: B2
Conditions: Kitasatospora aureofaciens; pH 7; 25 °C; Thermal; CD; MOPS 30 mM; reversible: yes(>95 %); structure 1RGG; whole UniProt chain shown

In order of falling “ddG of mutation (higher = less stable)” value:
1. Y52F  3.6 kcal/mol
2. Y80F  1.5 kcal/mol
3. Y81F  1.2 kcal/mol
4. Y55F  0.6 kcal/mol
5. Y86F  0.3 kcal/mol
6. Y49F  0.2 kcal/mol
7. Y30F  -0.4 kcal/mol
